The values below come from PMC9621694 (2022).

Targets include rsvfv_hal_2; rsvfv_hal_3; rsvfv_hal_1.
Holding throughout (assay): SPR
(SPR reads the build-up and loss of mass on a sensor chip optically.)

B1: neutralizing antibody hRSV90 (antibody, V domains shown)
VH: EVQLVESGGGLVQPRRSLRLSCAASGFTFDDYTIHWVRQAPGKGLEWVSGITWNSGYIGYADSVKGRFTISRDNARNSLYLQMNSLRAEDTALYYCVRDAYVSGSDYYYYGLDVWGRGTLVTVSS
VL: EIVMTSSPATLSVSPGERVTLFCRASQSVISNLAWYQQKSGQAPRLLIYGASTRATGIPSRFSGSGSGTEFTLTISSLQSEDFAVYFCQQYNNWPLTFGGGTQVNVQ
As for B1, the Kd was 1000 nM with rsvfv_hal_2, 1300 nM with rsvfv_hal_3 and 900 nM with rsvfv_hal_1.

What is called Kd is the constant that tells how readily two partners part at equilibrium. A lower Kd goes with a tighter complex.
